# Where no end group is shown, it is not given here. [ ]: non-standard residue; d: D form. Aib = CC(C)(N)C(=O)O
# Molecular target: T1, hGIPR (Homo sapiens, UniProt P48546)
# T1 construct: expressed in transfected cells
# T1 sequence (P48546 22-466): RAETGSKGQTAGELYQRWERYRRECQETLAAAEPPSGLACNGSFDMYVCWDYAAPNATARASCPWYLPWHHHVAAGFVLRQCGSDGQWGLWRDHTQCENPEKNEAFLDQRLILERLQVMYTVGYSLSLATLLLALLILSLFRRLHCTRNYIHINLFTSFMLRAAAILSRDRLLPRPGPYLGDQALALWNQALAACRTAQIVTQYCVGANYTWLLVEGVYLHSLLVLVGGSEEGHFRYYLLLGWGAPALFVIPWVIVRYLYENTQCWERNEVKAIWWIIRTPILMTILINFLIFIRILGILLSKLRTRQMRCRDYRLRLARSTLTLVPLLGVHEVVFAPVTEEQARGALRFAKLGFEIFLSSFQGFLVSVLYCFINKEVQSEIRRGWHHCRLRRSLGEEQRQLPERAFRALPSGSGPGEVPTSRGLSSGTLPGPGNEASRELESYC
# Assay: GIPR agonist activity, luciferase reporter gene assay in CHO-K1 cells
# Assay type: cell-based
# Settings: % that of natural GIP peptide
substance,measurement,value
"P29: GCG analogue, SEQ ID No. 5, unconjugated backbone of P29F (H[Aib]QGTFTSDYSK[Aib]KDSQAAQDFVQWLLAGGPSSGAPPPS-NH2)",GIPR agonist activity relative to natural GIP peptide,about 2%
